According to patent US7598352B2, “Method of identifying polypeptide monobodies which bind to target proteins and use thereof” (University of Rochester, priority 2000, dated 2009):
Where a chain is given by its changes, count along the chain named.

Tests used:
Type in all cases: cell-based
[1] = target: T1, ERα-EF (residues 297-595, the E and F domains of Estrogen Receptor α) (Homo sapiens, UniProt P03372, G400V); assay: Quantitative β-galactosidase yeast two-hybrid assay, ERα-EF bait; settings: for binding to different ERα-EF/agonist complexes: agonists E2, estriol, diethylstilbestrol, genistein, FIGS. 15A-D
T1 construct: expressed in transfected cells; host or cells: Saccharomyces cerevisiae RFY206 (mated with EGY48 for the survival screens)
T1 sequence (P03372 with tags, fused parts or gaps G400V): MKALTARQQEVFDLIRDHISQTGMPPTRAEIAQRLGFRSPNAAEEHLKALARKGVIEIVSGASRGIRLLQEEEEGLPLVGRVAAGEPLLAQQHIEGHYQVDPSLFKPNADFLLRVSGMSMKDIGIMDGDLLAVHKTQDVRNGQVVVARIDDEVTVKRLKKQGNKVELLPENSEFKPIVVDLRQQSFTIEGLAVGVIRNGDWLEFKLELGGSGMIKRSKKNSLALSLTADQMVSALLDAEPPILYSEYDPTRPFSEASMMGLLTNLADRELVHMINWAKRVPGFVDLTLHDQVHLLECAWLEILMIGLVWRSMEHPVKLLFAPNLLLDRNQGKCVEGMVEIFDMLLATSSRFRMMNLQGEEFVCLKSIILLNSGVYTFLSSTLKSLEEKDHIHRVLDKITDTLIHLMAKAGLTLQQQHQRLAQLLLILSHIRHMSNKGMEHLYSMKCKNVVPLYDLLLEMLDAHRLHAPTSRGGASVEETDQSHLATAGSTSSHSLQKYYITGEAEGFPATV
Experimental: (§1) Quantitative assays were performed as follows. The yeast strain RFY206 was (1) first transformed with pEGERα297-595 (or pEGERα297-554) and pSH18-34 and (2) subsequently with a derivative of the pYT45 plasmid encoding a particular monobody. Yeast cells were grown overnight at 30° C. in YC Glc-his-ura-trp media. The culture was then spun down, the media were discarded, and the cells were resuspended in YC Gal Raf-his-ura-trp media containing a ligand at a final cell density of 0.2 OD660 nm in a total volume of 175 μl in the wells of a deep 96-well plate. Ligands used were E2, ICI182,780, OHT, raloxifene, progesterone, estriol, diethylstilbestrol, and genistein. The ligand concentration was 1 μM except for genistein (10 μM). After incubating for six hours at 30° C. with shaking, 175 μl of β--galactosidase assay buffer (60 mM Na2HPO4, 40 mM NaH2PO4, 10 mM KCl, 1 mM MgSO4, 0.27% β-mercaptoethanol, 0.004% SDS, 4 mg/ml 2-nitrophenyl-β-D-[…], 50% Y-PER (Pierce)) was added to the culture, incubated at 30° C., then the reaction was stopped by adding 150 μl of 1M Na2CO3. After centrifugation, OD420 was measured and the β-galactosidase activity was calculated.
The binding specificity of the monobodies toward different ERα-EF/ligand complexes was examined using quantitative β-galactosidase assays. It has been shown that the β-galactosidase activity correlates well with the interaction affinity between the bait and prey of the yeast two-hybrid system (Estojak et al., 1995), allowing an in vivo discrimination of interaction affinity. To minimize the effect of different ligands on the expression level and degradation of the LexA-ER fusion protein, β-galactosidase activity was determined after a short incubation period (6 hours) following the addition of a ligand and the initiation of monobody production. It was confirmed that yeast samples prepared in the presence and absence of ligands contained similar levels of ERα-EF protein (FIG. 14H).

[2] = target: T2, ERα-E (residues 297-554, the E domain of Estrogen Receptor α) (Homo sapiens, UniProt P03372, G400V); assay: Quantitative β-galactosidase yeast two-hybrid assay, ERα-E bait (F domain deleted) compared with ERα-EF; settings: for effect of deletion of the F domain on interaction with the ERα fragments: in the presence of E2, ERα-E vs ERα-EF, FIGS. 16A-C
T2 construct: ERα-E (residues 297-554, the E domain of Estrogen Receptor α); expressed in transfected cells; host or cells: Saccharomyces cerevisiae RFY206
T2 sequence (P03372 297-554 G400V): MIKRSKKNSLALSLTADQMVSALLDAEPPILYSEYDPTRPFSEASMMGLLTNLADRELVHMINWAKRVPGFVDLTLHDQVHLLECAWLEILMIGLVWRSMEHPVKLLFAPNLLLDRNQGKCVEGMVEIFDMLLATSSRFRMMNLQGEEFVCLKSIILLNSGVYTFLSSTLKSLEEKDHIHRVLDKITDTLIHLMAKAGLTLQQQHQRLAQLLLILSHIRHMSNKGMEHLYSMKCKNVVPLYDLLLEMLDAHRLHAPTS
Experimental: as §1
The affects of the F domain (residues 551-595) on interactions of monobodies with the LBD (the E domain) of ERα was tested. The β-galactosidase activity of cells containing a LexA-ERα E domain fusion protein and a monobody-activation domain fusion protein was compared to the β-galactosidase activity of cells containing LexA-ERα-EF and the same monobody-activation domain fusion protein (FIGS. 16A-E).

[3] = target: T1, ERα-EF (residues 297-595, the E and F domains of Estrogen Receptor α); assay: Yeast two-hybrid survival assay (LEU+ growth selection) of monobody clones; settings: ligand ICI182,780, pYT45B3F7 library clones
Description: Briefly, utilizing such a system, plasmids are constructed that encode two fusion proteins, the interaction of which is shown schematically in FIGS. 4A-B. The first fusion protein (also known as “bait”) contains the DNA-binding domain (e.g., LexA) fused to a known protein, in this case a nuclear receptor or fragment thereof which includes a functional ligand binding domain (NR-LBD). Any of the above-identified nuclear receptors (or fragments thereof which include a functional ligand binding domain) can be used as the bait protein or polypeptide. The second fusion protein (also known as “prey”) includes an activation domain (e.g., B42) fused to an unknown protein, in this case a polypeptide monobody, that is encoded by a cDNA which has been recombined into a plasmid as part of a combinatorial cDNA library. Both plasmids include a promoter which is operable in yeast cells and which has been ligated upstream of the fusion protein coding regions. […] In contrast, where interaction between the monobody of the prey and the nuclear receptor ligand binding domain of the bait occurs (FIG. 4B), a functional transcription factor is reconstituted, resulting in expression of the reporter gene which can be detected by an assay for the reporter gene product. […]

B1: SRC-1: NR-box fragment (residues 570-780) of steroid receptor coactivator-1, natural coactivator of ER (protein)
chain: PSRLNIQPAKAESKDNKEIASILNEMIQSDNSSSDGKPLDSGLLHNNDRLSDGDSKYSQTSHKLVQLLTTTAEQQLRHADIDTSCKDVLSCTGTSNSASANSSGGSCPSSHSSLTERHKILHRLLQEGSPSDITTLSVEPDKKDSASTSVSVTGQVQGNSSIKLELDASKKKESKDHQLLRYLLDKDEKDLRSTPNLSLDDVKVKVEKKEQ
modifications: left off: large carriers
For B1, the “binding to different ERα-EF/agonist complexes” value [1] was “bind equally well” and the “effect of deletion of the F domain on interaction with the ERα fragments” value [2] was “little effect”.

B2: Clone F2-2#11: pYT45B3F7 library monobody, E2 screen; FG loop RVMDMLL (SEQ ID No: 44) (protein)
chain: MQVSDVPRDLEVVAATPTSLLISWDAPAVTVRYYRITYGETGGNSPVQEFTVPGSKSTATISGLKPGVDYTITVYAVTGRVMDMLLSKPISINYRT
modifications: left off: large carriers
With B2 the “sensitivity to the differences among agonist complexes” value ([1]; ERα-EF/agonist complexes) was “most sensitive”, the “β-galactosidase activity among those tested” value ([1]; ERα-EF/agonist complexes, FIGS. 14-16) was “lowest” and the “binding to different ERα-EF/agonist complexes” value [1] was “different reactivity”.

B3: Clone 23,31,E31,3,4,5: pYT45B3F7 library monobody, E2 screen; FG loop LRLMLAG (SEQ ID No: 36), wild-type BC loop (protein)
chain: B2 chain with R80L, V81R, M82L, D83M, M84L, L85A, L86G
modifications: left off: large carriers
In the case of B3, the “binding to different ERα-EF/agonist complexes” value [1] is reported as “bind equally well” and the “effect of deletion of the F domain on interaction with the ERα fragments” value [2] is reported as “little effect”.

B4: Clone 33: pYT45B3F7 library monobody, OHT screen; FG loop TWVRPNQ (SEQ ID No: 49) (protein)
chain: B2 chain with R80T, V81W, M82V, D83R, M84P, L85N, L86Q
modifications: left off: large carriers
In the case of B4, the “effect of deletion of the F domain on interaction with ERα” value ([2]; in the absence of a ligand) is reported as “did not increase”, the “interactions with ERα-E and ERα-EF compared” value ([2]; in the presence of OHT, FIG. 16D) is reported as “similar” and the “interaction with ERα-E/raloxifene complex relative to ERα-EF/raloxifene complex” value ([2]; raloxifene, FIG. 16D) is reported as “significantly greater”.

B5: F2-2#10 (protein)
chain: B2 chain with M82R, M84L, L86M
modifications: left off: large carriers
For B5, the “Binding Specificity ICI” value [3] was “weak+”.
